# Measurements as given in US20260152557A1 (Adimab, published 2026).
# Where a chain is given by its changes, count along the chain named.
# B1: Fab of ADI-74966 (Antibody No. 4) (Fab, V domains shown)
# VH: QVQLVQSGAEVKKPGASVKVSCKASGFNIKDYYMHWVRQAPGQRLEWMGWIDLENANTIYDAKFQGRVTITRDTSASTAYMELSSLRSEDTAVYYCARDHYHRYFYDVWGQGTLVTVSS
# VL: DIVMTQSPDSLAVSLGERATINCKSSQSLLNARTGHNYLAWYQQKPGQPPKLLIYWASTRESGVPDRFSGSGSGTDFTLTISSLQAEDVAVYYCKQSYSHRTFGGGTKVEIK
# notes: Fab made by papain digestion of the human IgG1 (yeast- or CHO-produced); also called Antibody No. 4 Fab; ADI-74966 Fab
# B2: Fab of ADI-79844 (Antibody No. 10) (Fab, V domains shown)
# VH: B1 VH with H100A, H102G
# VL: B1 VL with H36K, Y98H, H100R
# notes: Fab made by papain digestion of the yeast-produced human IgG1; also called Antibody No. 10 Fab; ADI-79844 Fab
# B3: Fab of ADI-79848 (Antibody No. 9) (Fab, V domains shown)
# VH: B1 VH with H100A, H102G
# VL: B1 VL with H100R
# notes: Fab made by papain digestion of the yeast-produced human IgG1; also called Antibody No. 9 Fab; ADI-79848 Fab
# B4: Fab of ADI-79842 (Antibody No. 7) (Fab, V domains shown)
# VH: B1 VH with H102G
# VL: B1 VL with H36K, H100R
# notes: Fab made by papain digestion of the yeast-produced human IgG1; also called Antibody No. 7 Fab; ADI-79842 Fab
# B5: Fab of ADI-79843 (Antibody No. 8) (Fab, V domains shown)
# VH: B1 VH with H100A
# VL: B1 VL with H36K, H100R
# notes: Fab made by papain digestion of the yeast-produced human IgG1; also called Antibody No. 8 Fab; ADI-79843 Fab
# B6: Fab of ADI-79845 (Antibody No. 11) (Fab, V domains shown)
# VH: B1 VH with H100A, H102G
# VL: B1 VL with H36K
# notes: Fab made by papain digestion of the yeast-produced human IgG1; also called Antibody No. 11 Fab; ADI-79845 Fab
# B7: ADI-48587 (Antibody No. 2), human IgG1 (antibody, V domains shown)
# VH: B1 VH
# VL: B1 VL with Y98H
# notes: Tested as human IgG1 (yeast-produced aglycosylated, or CHO-produced); also called Ab No. 2; parent pH-dependent antibody
# B8: ADI-79844 (Antibody No. 10), human IgG1 (antibody, V domains shown)
# VH: B1 VH with H100A, H102G
# VL: B1 VL with H36K, Y98H, H100R
# notes: Tested as yeast-produced aglycosylated human IgG1
# B9: ADI-79848 (Antibody No. 9), human IgG1 (antibody, V domains shown)
# VH: B1 VH with H100A, H102G
# VL: B1 VL with H100R
# notes: as for B8
# B10: ADI-79846 (Antibody No. 12), human IgG1 (antibody, V domains shown)
# VH: B1 VH with E82G, H102G
# VL: B1 VL with Y98H
# notes: as for B8
# B11: ADI-79845 (Antibody No. 11), human IgG1 (antibody, V domains shown)
# VH: B1 VH with H100A, H102G
# VL: B1 VL with H36K
# notes: as for B8
# B12: ADI-79847 (Antibody No. 13), human IgG1 (antibody, V domains shown)
# VH: B1 VH
# VL: B1 VL with Y98H, H100R
# notes: as for B8
# B13: ADI-79842 (Antibody No. 7), human IgG1 (antibody, V domains shown)
# VH: B1 VH with H102G
# VL: B1 VL with H36K, H100R
# notes: as for B8
# B14: ADI-79843 (Antibody No. 8), human IgG1 (antibody, V domains shown)
# VH: B1 VH with H100A
# VL: B1 VL with H36K, H100R
# notes: as for B8
# B15: ADI-74966 (Antibody No. 4), human IgG1 (antibody, V domains shown)
# VH: B1 VH
# VL: B1 VL
# notes: Tested as human IgG1 (yeast-produced aglycosylated, or CHO-produced)
# Target: T1, human CD3εδ-Fc heterodimer (Hu CD3ε Fc / CD3δ Fc-HIS) (human, UniProt P04234 22-100)
# T1 construct: range 22-100; Produced in HEK 293 cells with a heterologous signal peptide; heterodimer purified by Ni Sepharose and Mono Q; also called Hu CD3εδ Fc heterodimer; CD3εδ Fc-HIS heterodimer; not shown: Fc-HIS part of CD3δ Fc-HIS
# T1 sequence (chain, as listed by the source mutant, form in doubt, chain 1 of 2): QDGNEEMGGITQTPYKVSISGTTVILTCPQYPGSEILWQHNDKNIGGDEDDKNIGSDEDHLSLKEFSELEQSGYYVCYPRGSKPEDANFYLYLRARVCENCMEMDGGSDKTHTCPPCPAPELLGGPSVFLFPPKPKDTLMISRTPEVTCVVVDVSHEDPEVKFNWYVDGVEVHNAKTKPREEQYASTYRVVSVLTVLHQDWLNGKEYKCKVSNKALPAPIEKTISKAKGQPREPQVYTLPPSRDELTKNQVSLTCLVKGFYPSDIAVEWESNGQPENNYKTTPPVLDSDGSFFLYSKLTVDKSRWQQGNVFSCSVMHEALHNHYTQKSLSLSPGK
# T1 sequence (P04234 22-100, stated change not applied, form in doubt, chain 2 of 2): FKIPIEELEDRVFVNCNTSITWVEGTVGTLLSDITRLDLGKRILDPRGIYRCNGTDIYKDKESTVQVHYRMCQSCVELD
# Test: SPR (Biacore 8K), CHO-produced Fab, monovalent, pH 6.0
# Experimental: (§1) Anti-CD3 antibodies (Antibody Nos. 1-13) were produced as human IgG1 antibodies in yeast or Chinese hamster ovary (CHO) cells, and Fab fragments were generated from the IgG1 antibodies by papain digestion and purified IgGs produced in yeast were aglycosylated. CHO produced IgGs had standard CH2 glycosylation. […] Monovalent binding affinity to human or cynomolgus CD3εδ-Fc at pH 7.4 and pH 6.0 were measured via surface plasmon resonance (SPR) using the BIACORE® 8K (Cytiva, previously GE Healthcare Life Sciences) system and analyzed using BIACORE® Evaluation Software.
# (§2) BIACORE® KD measurements (surface plasmon resonance; SPR). BIACORE® affinity measurements were performed generally as previously described. Briefly, human CD3εδ-Fc heterodimer produced as described above was immobilized to a NiNTA sensor chip in a BIACORE® 8K (Cytiva, previously GE Healthcare Life Sciences) to a response level of ˜500 RUs. […] The sensor chip was doubly regenerated between cycles using 0.35 M EDTA and 0.1 M NaOH. The resulting data were double reference subtracted and fit to a 1:1 binding model using BIACORE® Evaluation Software.
row,Binder,Kd [nM]
1,B1,19.5

# Target: T2, cynomolgus CD3εδ-Fc heterodimer (Cy CD3ε Fc / CD3δ Fc-HIS) (cynomolgus, UniProt Q95LI8 22-100)
# T2 construct: range 22-100; Produced in HEK 293 cells; also called Cy CD3εδ Fc heterodimer; not shown: Fc-HIS part of CD3δ Fc-HIS
# T2 sequence (chain, as listed by the source mutant, form in doubt, chain 1 of 2): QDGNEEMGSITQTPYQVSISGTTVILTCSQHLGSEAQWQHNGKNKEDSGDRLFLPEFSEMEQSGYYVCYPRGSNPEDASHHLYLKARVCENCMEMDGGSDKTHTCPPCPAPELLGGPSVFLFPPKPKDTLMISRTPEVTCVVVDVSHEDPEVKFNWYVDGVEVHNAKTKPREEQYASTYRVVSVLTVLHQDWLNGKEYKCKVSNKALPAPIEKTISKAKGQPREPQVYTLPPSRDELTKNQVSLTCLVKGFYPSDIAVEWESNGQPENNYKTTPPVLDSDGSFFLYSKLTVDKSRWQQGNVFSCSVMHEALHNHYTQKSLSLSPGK
# T2 sequence (Q95LI8 22-100, stated change not applied, form in doubt, chain 2 of 2): as the sequence (P04234 22-100, stated change not applied, form in doubt, chain 2 of 2) above, with I5V, N15K, I20V, S32T, D33N, I34N, T64A, S74N counted along it
# Test: as above
# Experimental: as §1, §2
row,Binder,Kd [nM]
1,B1,26.1

# Target: T1, human CD3εδ-Fc heterodimer (Hu CD3ε Fc …)
# Test: SPR (Biacore 8K), yeast-produced Fab, monovalent, pH 6.0
# Experimental: as §1, §2
row,Binder,Kd [nM]
1,B2,2.34
2,B3,5.76
3,B1,16.3
4,B4,6.16
5,B5,0.796
6,B6,1.96

# Target: T3, cynomolgus CD3 on HSC-F cells (cynomolgus, UniProt Q95LI5 22-198)
# T3 construct: whole, on cells; also called Cyno HSC-F; cynomolgus HSC-F cells
# T3 sequence (Q95LI5 22-198): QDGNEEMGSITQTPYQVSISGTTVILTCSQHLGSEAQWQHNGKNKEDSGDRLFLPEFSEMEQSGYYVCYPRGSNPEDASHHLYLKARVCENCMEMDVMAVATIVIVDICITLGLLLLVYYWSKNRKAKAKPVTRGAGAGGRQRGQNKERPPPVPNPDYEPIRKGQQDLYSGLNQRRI
# Test: flow cytometry, yeast-produced IgG 100 nM on HSC-F cells, pH 6.0
# Experimental: (§3) Anti-CD3 antibodies Antibody Nos. 1-13 were produced as aglycosylated IgGs comprising a IgG1 Fc region in yeast cells. Binding to human or cynomolgus CD3-expressing cells (human CD3+ Jurkat cells or cynomolgus HSC-F cells, respectively) at pH 7.4 and pH 6.0 were measured by fluorescence-activated single cell sorting (FACS). Normalized cell binding (NCB) values were calculated based on median fluorescence intensity (MFI) values, CD3 negative Jurkat cells were used as a negative control.
# (§4) Cell binding assay, CD3+ and CD3− human Jurkat cells (ATCC) and cynomolgus HSC-F cells (NIH) were thawed and washed with cold PBSF buffer, pH 7.4 (PBS+0.1% BSA, pH 7.4). About 200,000 cells were aliquoted per well of a 96-well plate (FACS Assay Plate VWR BD 353263) and pelleted by centrifugation (5 minutes at 500×g). The cells were washed with either PBSF pH 7.4 or PBSF pH 6.0 (PBS+0.1% BSA, pH 6.0), and then resuspended in 100 μl in either PBSF pH 7.4 or PBSF pH 6.0 with IgG antibody (100 nM) produced in yeast as described above. The mixture (cells+antibody) was incubated for 20 minutes on ice, then washed twice with either PBSF pH 7.4 or PBSF pH 6.0. Cells were resuspended in 50 μl of propidium iodide (Roche; 1:500 dilution) and anti-human IgG-RPE (Southern Biotech; 1:100 dilution) prepared in either PBSF pH 7.4 or PBSF pH 6.0, then incubated for 20 minutes on ice in the dark before cells were washed twice with either PBSF pH 7.4 or PBSF pH 6.0. Binding was analyzed on FACS Canto 11.
row,Binder,NCB
1,B7,437
2,B8,603
3,B9,550
4,B10,235
5,B11,581
6,B12,2
7,B13,575
8,B14,603
9,B15,378

# Target: T3, cynomolgus CD3 on HSC-F cells
# Test: flow cytometry, yeast-produced IgG 100 nM on HSC-F cells, pH 7.4
# Experimental: as §3, §4
row,Binder,NCB
1,B7,0
2,B8,160
3,B9,173
4,B10,2
5,B11,167
6,B12,0
7,B13,172
8,B14,174
9,B15,0

# Target: T4, human CD3 on CD3+ Jurkat cells (human, UniProt P07766 23-207)
# T4 construct: whole, on cells; The whole CD3 complex stands on the cells; also called Human CD3 Jurkat; human CD3+ Jurkat cells
# T4 sequence (P07766 23-207): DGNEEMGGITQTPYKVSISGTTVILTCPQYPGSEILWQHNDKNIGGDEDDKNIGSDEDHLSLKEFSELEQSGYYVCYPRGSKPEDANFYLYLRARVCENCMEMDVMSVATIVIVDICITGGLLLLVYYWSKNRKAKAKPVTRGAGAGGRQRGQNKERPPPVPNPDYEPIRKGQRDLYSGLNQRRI
# Test: flow cytometry, yeast-produced IgG 100 nM on CD3+ Jurkat cells, pH 6.0
# Experimental: as §3, §4
row,Binder,NCB
1,B7,149
2,B8,196
3,B9,200
4,B10,65
5,B11,200
6,B12,0
7,B13,208
8,B14,207
9,B15,131

# Target: T1, human CD3εδ-Fc heterodimer (Hu CD3ε Fc …)
# Test: BLI (Octet), yeast-produced IgG on AHC sensor, CD3εδ-Fc 100 nM in solution, pH 7.4
# Experimental: (§5) Anti-CD3 antibodies Antibody Nos. 1-13 were produced as human IgG1 antibodies in yeast or CHO cells. IgGs produced in yeast were aglycosylated, CHO) produced IgGs had standard CH2 glycosylation. Binding affinity to human or cynomolgus CD3εδ-Fc at pH 7.4 and pH 6.0 was measured via biolayer interferometry (BLI) using the ForteBio OCTET® HTX system and analyzed using the ForteBio software.
# (§6) Kinetics were analyzed using the 1:1 binding model.
row,Binder,Kd [nM]
1,B8,6.51
2,B9,11.6
3,B11,9.87
4,B13,16.1
5,B14,6.64

# Target: T2, cynomolgus CD3εδ-Fc heterodimer (Cy …)
# Test: as above
# Experimental: as §5, §6
row,Binder,Kd [nM]
1,B8,5.42
2,B9,14.5
3,B11,8.06
4,B13,17.9
5,B14,5.66
6,B15,47.6

# Target: T4, human CD3 on CD3+ Jurkat cells
# Test: flow cytometry, yeast-produced IgG 100 nM on CD3+ Jurkat cells, pH 7.4
# Experimental: as §3, §4
row,Binder,NCB
1,B7,0
2,B8,147
3,B9,136
4,B10,4
5,B11,149
6,B12,0
7,B13,139
8,B14,149
9,B15,0

# Target: T1, human CD3εδ-Fc heterodimer (Hu CD3ε Fc …)
# Test: BLI (Octet), yeast-produced IgG on AHC sensor, CD3εδ-Fc 100 nM in solution, pH 6.0
# Experimental: as §5, §6
row,Binder,Kd [nM]
1,B7,9.33
2,B8,3.6
3,B9,6.47
4,B10,8.09
5,B11,1.04
6,B13,6.52
7,B14,1.6
8,B15,6.95

# Target: T2, cynomolgus CD3εδ-Fc heterodimer (Cy …)
# Test: as above
# Experimental: as §5, §6
row,Binder,Kd [nM]
1,B8,2.94
2,B9,6.28
3,B10,11.8
4,B13,6.88
5,B14,1.76
6,B15,9.71

# Target: T2, cynomolgus CD3εδ-Fc heterodimer (Cy …)
# Test: BLI (Octet), CHO-produced IgG on AHC sensor, CD3εδ-Fc 100 nM in solution, pH 6.0
# Experimental: as §5, §6
row,Binder,Kd [nM]
1,B7,451
2,B15,209

# Target: T1, human CD3εδ-Fc heterodimer (Hu CD3ε Fc …)
# Test: BLI (Octet), CD3εδ-Fc on AHC sensor, CHO-derived Fab 100 nM in solution, pH 6.0
row,Binder,Kd [nM]
1,B1,36.7

# Target: T1, human CD3εδ-Fc heterodimer (Hu CD3ε Fc …)
# Test: SPR (Biacore 8K), yeast-produced Fab, monovalent, pH 7.4
# Experimental: as §1, §2
row,Binder,Kd [nM]
1,B2,3.45
2,B3,33.4
3,B4,32.6
4,B5,5.9
5,B6,8.5
